Key:
[1] = target: KIR2DL3 recombinant protein (entire extracellular domain, produced in E. coli, immobilized on Biacore chip) (human) (UniProt P43628); experiment: SPR, KIR2DL3 chip; second Ab alone (field of first Ab 1-4 F1)
[2] = target: KIR2DL3 recombinant protein (entire extracellular domain, produced in E. coli, immobilized on Biacore chip) (human) (UniProt P43628); experiment: SPR competition, KIR2DL3 chip; competitor (second Ab) 1-7 F9
[3] = target: KIR2DL3 recombinant protein (entire extracellular domain, produced in E. coli, immobilized on Biacore chip) (human) (UniProt P43628); experiment: SPR competition, KIR2DL3 chip; competitor (second Ab) 1-4 F1
[4] = target: KIR2DL3 recombinant protein (entire extracellular domain, produced in E. coli, immobilized on Biacore chip) (human) (UniProt P43628); experiment: SPR competition, KIR2DL3 chip; competitor (second Ab) 1-6 F1
[5] = target: KIR2DL3 recombinant protein (entire extracellular domain, produced in E. coli, immobilized on Biacore chip) (human) (UniProt P43628); experiment: SPR competition, KIR2DL3 chip; competitor (second Ab) Pan2D
[6] = target: KIR2DL3 recombinant protein (entire extracellular domain, produced in E. coli, immobilized on Biacore chip) (human) (UniProt P43628); experiment: SPR, KIR2DL3 chip; second Ab after first Ab 1-7 F9
[7] = target: KIR2DL3 recombinant protein (entire extracellular domain, produced in E. coli, immobilized on Biacore chip) (human) (UniProt P43628); experiment: SPR, KIR2DL3 chip; second Ab alone (field of first Ab 1-7 F9)
[8] = target: KIR2DL3 recombinant protein (entire extracellular domain, produced in E. coli, immobilized on Biacore chip) (human) (UniProt P43628); experiment: SPR competition, KIR2DL3 chip; competitor (second Ab) DF200
[9] = target: KIR2DL3 recombinant protein (entire extracellular domain, produced in E. coli, immobilized on Biacore chip) (human) (UniProt P43628); experiment: SPR, KIR2DL3 chip; second Ab after first Ab 1-6 F1
[10] = target: KIR2DL3 recombinant protein (entire extracellular domain, produced in E. coli, immobilized on Biacore chip) (human) (UniProt P43628); experiment: SPR, KIR2DL3 chip; second Ab after first Ab 1-4 F1
[11] = target: KIR2DL3 recombinant protein (entire extracellular domain, produced in E. coli, immobilized on Biacore chip) (human) (UniProt P43628); experiment: SPR, KIR2DL3 chip; second Ab alone (field of first Ab 1-6 F1)
[12] = target: KIR2DL1 recombinant protein (entire extracellular domain, produced in E. coli, immobilized on Biacore chip) (human) (UniProt P43626); experiment: SPR, KIR2DL1 chip; second Ab alone (field of first Ab 1-7 F9)
[13] = target: KIR2DL1 recombinant protein (entire extracellular domain, produced in E. coli, immobilized on Biacore chip) (human) (UniProt P43626); experiment: SPR competition, KIR2DL1 chip; competitor (second Ab) 1-4 F1
[14] = target: KIR2DL1 recombinant protein (entire extracellular domain, produced in E. coli, immobilized on Biacore chip) (human) (UniProt P43626); experiment: SPR competition, KIR2DL1 chip; competitor (second Ab) 1-7 F9
[15] = target: KIR2DL1 recombinant protein (entire extracellular domain, produced in E. coli, immobilized on Biacore chip) (human) (UniProt P43626); experiment: SPR competition, KIR2DL1 chip; competitor (second Ab) DF200
[16] = target: KIR2DL1 recombinant protein (entire extracellular domain, produced in E. coli, immobilized on Biacore chip) (human) (UniProt P43626); experiment: SPR competition, KIR2DL1 chip; competitor (second Ab) EB6 (self)
[17] = target: KIR2DL1 recombinant protein (entire extracellular domain, produced in E. coli, immobilized on Biacore chip) (human) (UniProt P43626); experiment: SPR, KIR2DL1 chip; second Ab after first Ab EB6
[18] = target: KIR2DL1 recombinant protein (entire extracellular domain, produced in E. coli, immobilized on Biacore chip) (human) (UniProt P43626); experiment: SPR, KIR2DL1 chip; second Ab alone (field of first Ab EB6)
[19] = target: KIR2DL1 recombinant protein (entire extracellular domain, produced in E. coli, immobilized on Biacore chip) (human) (UniProt P43626); experiment: SPR, KIR2DL1 chip; second Ab after first Ab 1-6 F1
[20] = target: KIR2DL1 recombinant protein (entire extracellular domain, produced in E. coli, immobilized on Biacore chip) (human) (UniProt P43626); experiment: SPR competition, KIR2DL1 chip; competitor (second Ab) 1-6 F1
[21] = target: KIR2DL1 recombinant protein (entire extracellular domain, produced in E. coli, immobilized on Biacore chip) (human) (UniProt P43626); experiment: SPR competition, KIR2DL1 chip; competitor (second Ab) Pan2D
[22] = target: KIR2DL1 recombinant protein (entire extracellular domain, produced in E. coli, immobilized on Biacore chip) (human) (UniProt P43626); experiment: SPR, KIR2DL1 chip; second Ab alone (field of first Ab 1-6 F1)
[23] = target: KIR2DL1 recombinant protein (entire extracellular domain, produced in E. coli, immobilized on Biacore chip) (human) (UniProt P43626); experiment: SPR, KIR2DL1 chip; second Ab after first Ab 1-7 F9
[24] = target: KIR2DL3 recombinant protein (entire extracellular domain, produced in E. coli, immobilized on Biacore chip) (human) (UniProt P43628); experiment: SPR competition, KIR2DL3 chip; competitor (second Ab) 1-6 F5
[25] = target: KIR2DL1(R131W)-hFc (human) (UniProt P43626); experiment: ELISA, KIR2DL1(R131W)-hFc against KIR2DL1-hFc, mAb at 1 µg/ml
[26] = target: KIR2DL3 recombinant protein (entire extracellular domain, produced in E. coli, immobilized on Biacore chip) (human) (UniProt P43628); experiment: SPR, KIR2DL3 chip; second Ab alone (field of first Ab 1-6 F5)
[27] = target: KIR2DL3 recombinant protein (entire extracellular domain, produced in E. coli, immobilized on Biacore chip) (human) (UniProt P43628); experiment: SPR, KIR2DL3 chip; second Ab after first Ab 1-6 F5
immobilized KIR 2DS1 [28] = target: immobilized KIR 2DS1 (UniProt Q14954); experiment: SPR competition, KIR2DS1 chip; competitor (second Ab) 1-4 F1
[29] = target: KIR2DL1 recombinant protein (entire extracellular domain, produced in E. coli, immobilized on Biacore chip) (human) (UniProt P43626); experiment: SPR competition, KIR2DL1 chip; competitor (second Ab) 1-6 F5
[30] = target: KIR2DL1 recombinant protein (entire extracellular domain, produced in E. coli, immobilized on Biacore chip) (human) (UniProt P43626); experiment: SPR, KIR2DL1 chip; second Ab alone (field of first Ab 1-6 F5)
[31] = target: KIR2DL1 recombinant protein (entire extracellular domain, produced in E. coli, immobilized on Biacore chip) (human) (UniProt P43626); experiment: SPR, KIR2DL1 chip; second Ab after first Ab 1-6 F5
[32] = target: KIR2DL3 recombinant protein (entire extracellular domain, produced in E. coli, immobilized on Biacore chip) (human) (UniProt P43628); experiment: SPR competition, KIR2DL3 chip; competitor (second Ab) gl183
immobilized KIR 2DS1 [33] = target: immobilized KIR 2DS1 (UniProt Q14954); experiment: SPR, KIR2DS1 chip; second Ab alone (field of first Ab 1-7 F9)
[34] = target: KIR2DL1 recombinant protein (entire extracellular domain, produced in E. coli, immobilized on Biacore chip) (human) (UniProt P43626); experiment: SPR (Biacore), KIR2DL1 immobilized on CM5, soluble antibody 1x10^-7 to 4x10^-10 M
[35] = target: KIR2DL1 recombinant protein (entire extracellular domain, produced in E. coli, immobilized on Biacore chip) (human) (UniProt P43626); experiment: SPR competition, KIR2DL1 chip; competitor (second Ab) EB6
immobilized KIR 2DS1 [36] = target: immobilized KIR 2DS1 (UniProt Q14954); experiment: SPR, KIR2DS1 chip; second Ab after first Ab 1-7 F9
[37] = target: KIR2DL3 recombinant protein (entire extracellular domain, produced in E. coli, immobilized on Biacore chip) (human) (UniProt P43628); experiment: SPR (Biacore), KIR2DL3 immobilized on CM5, soluble antibody 1x10^-7 to 4x10^-10 M
immobilized KIR 2DS1 [38] = target: immobilized KIR 2DS1 (UniProt Q14954); experiment: SPR competition, KIR2DS1 chip; competitor (second Ab) Pan2D
immobilized KIR 2DS1 [39] = target: immobilized KIR 2DS1 (UniProt Q14954); experiment: SPR competition, KIR2DS1 chip; competitor (second Ab) 1-7 F9
immobilized KIR 2DS1 [40] = target: immobilized KIR 2DS1 (UniProt Q14954); experiment: SPR competition, KIR2DS1 chip; competitor (second Ab) DF200

Sequence of immobilized KIR 2DS1 (Q14954 22-245 limits assumed): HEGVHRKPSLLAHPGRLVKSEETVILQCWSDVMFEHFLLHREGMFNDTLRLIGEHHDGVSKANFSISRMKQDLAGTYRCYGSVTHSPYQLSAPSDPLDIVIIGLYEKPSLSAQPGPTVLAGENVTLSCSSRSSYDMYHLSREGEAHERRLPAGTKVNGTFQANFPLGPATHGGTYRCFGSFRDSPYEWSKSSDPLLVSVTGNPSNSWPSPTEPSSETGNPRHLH
Sequence of KIR2DL3 recombinant protein (entire extracellular domain, produced in E. coli, immobilized on Biacore chip) (human) (P43628 22-245): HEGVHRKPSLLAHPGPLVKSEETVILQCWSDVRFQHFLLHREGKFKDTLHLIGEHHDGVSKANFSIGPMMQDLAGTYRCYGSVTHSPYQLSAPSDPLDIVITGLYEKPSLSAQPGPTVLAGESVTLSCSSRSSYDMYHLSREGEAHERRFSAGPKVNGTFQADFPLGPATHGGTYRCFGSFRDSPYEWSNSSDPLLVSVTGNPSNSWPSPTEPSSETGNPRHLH
Sequence of KIR2DL1 recombinant protein (entire extracellular domain, produced in E. coli, immobilized on Biacore chip) (human) (P43626 22-245): as the sequence (Q14954 22-245 limits assumed) above, with K70T, L90V, P114L, T154P, N163D, R182H, E216K counted along it
Sequence of KIR2DL1(R131W)-hFc (human) (P43626 22-245 R152W): as the sequence (Q14954 22-245 limits assumed) above, with K70T, L90V, P114L, R131W, T154P, N163D, R182H, E216K counted along it

GL183 (IgG1 anti KIR2DL3) (antibody)
RU, direct binding of second antibody [1]: 1240 RU | % inhibition of second antibody binding [2]: 76% | % inhibition of second antibody binding [3]: 75% | % inhibition of second antibody binding [4]: 18% | % inhibition of second antibody binding [5]: 40% | RU, second antibody with first antibody present [6]: 200 RU | RU, direct binding of second antibody [7]: 800 RU | % inhibition of second antibody binding [8]: 8% | RU, second antibody with first antibody present [9]: 570 RU | RU, second antibody with first antibody present [10]: 330 RU | RU, direct binding of second antibody [11]: 620 RU

EB6 (IgG1 anti KIR2DL1) (antibody)
RU, direct binding of second antibody [12]: 460 RU | % inhibition of second antibody binding [13]: 48% | % inhibition of second antibody binding [14]: 65% | % inhibition of second antibody binding [15]: 60% | % inhibition of second antibody binding [16]: 57% | RU, second antibody with first antibody present [17]: 200 RU | RU, direct binding of second antibody [18]: 460 RU | RU, second antibody with first antibody present [19]: 320 RU | % inhibition of second antibody binding [20]: 23% | % inhibition of second antibody binding [21]: 40% | RU, direct binding of second antibody [22]: 260 RU | RU, second antibody with first antibody present [23]: 180 RU

monoclonal antibody DF200 produced by hybridoma DF200
RU, direct binding of second antibody [1]: 1140 RU | % inhibition of second antibody binding [24]: 4% | RU, direct binding of second antibody [12]: 600 RU | % inhibition of second antibody binding [13]: 92% | % inhibition of second antibody binding [14]: 27% | % inhibition of second antibody binding [2]: 62% | reduction in binding compared to wild type [25]: 10% | % inhibition of second antibody binding [3]: 75% | % inhibition of second antibody binding [4]: 16% | % inhibition of second antibody binding [5]: 75% | RU, direct binding of second antibody [26]: 800 RU | RU, second antibody with first antibody present [27]: 760 RU | % inhibition of second antibody binding (immobilized KIR 2DS1 [28]): 87% | RU, second antibody with first antibody present [6]: 450 RU | % inhibition of second antibody binding [29]: 15% | RU, direct binding of second antibody [7]: 770 RU | RU, direct binding of second antibody [30]: 350 RU | RU, second antibody with first antibody present [31]: 290 RU | % inhibition of second antibody binding [32]: 20% | RU, direct binding of second antibody (immobilized KIR 2DS1 [33]): 900 RU | RU, second antibody with first antibody present [9]: 760 RU | RU, second antibody with first antibody present [19]: 310 RU | Kd [34]: 10.9 nM | % inhibition of second antibody binding [35]: 90% | RU, second antibody with first antibody present [10]: 210 RU | RU, direct binding of second antibody [11]: 790 RU | RU, second antibody with first antibody present (immobilized KIR 2DS1 [36]): 1090 RU | % inhibition of second antibody binding [20]: 15% | Kd [37]: 2 nM | % inhibition of second antibody binding (immobilized KIR 2DS1 [38]): 70% | % inhibition of second antibody binding [21]: 80% | % inhibition of second antibody binding (immobilized KIR 2DS1 [39]): 15% | RU, direct binding of second antibody [22]: 350 RU | RU, second antibody with first antibody present [23]: 545 RU

monoclonal antibody NKVSF1
RU, direct binding of second antibody [1]: 2400 RU | % inhibition of second antibody binding [24]: 18% | RU, direct binding of second antibody [12]: 545 RU | % inhibition of second antibody binding [13]: 95% | % inhibition of second antibody binding [14]: 2% | % inhibition of second antibody binding [2]: 15% | reduction in binding compared to wild type [25]: 10% | % inhibition of second antibody binding [3]: 68% | % inhibition of second antibody binding [4]: 8% | % inhibition of second antibody binding [15]: 90% | RU, direct binding of second antibody [26]: 990 RU | RU, second antibody with first antibody present [27]: 950 RU | % inhibition of second antibody binding (immobilized KIR 2DS1 [28]): 100% | RU, second antibody with first antibody present [6]: 830 RU | % inhibition of second antibody binding [29]: 13% | RU, direct binding of second antibody [7]: 870 RU | RU, direct binding of second antibody [30]: 475 RU | RU, second antibody with first antibody present [31]: 440 RU | % inhibition of second antibody binding [32]: 85% | RU, direct binding of second antibody (immobilized KIR 2DS1 [33]): 1350 RU | % inhibition of second antibody binding [8]: 95% | RU, second antibody with first antibody present [9]: 1090 RU | RU, second antibody with first antibody present [19]: 440 RU | % inhibition of second antibody binding [35]: 90% | RU, second antibody with first antibody present [10]: 890 RU | RU, direct binding of second antibody [11]: 990 RU | RU, second antibody with first antibody present (immobilized KIR 2DS1 [36]): 1200 RU | % inhibition of second antibody binding [20]: 12% | % inhibition of second antibody binding (immobilized KIR 2DS1 [40]): 100% | % inhibition of second antibody binding (immobilized KIR 2DS1 [39]): 45% | RU, direct binding of second antibody [22]: 475 RU | RU, second antibody with first antibody present [23]: 534 RU
